Measured values taken from patent US20110166062A1.

Tests used:
Assay in all cases: cell-based or functional assay
glucagon receptor = glucagon receptor (UniProt P47871)
GLP-1 receptor = GLP-1 receptor (UniProt P43220)
GIP receptor = GIP receptor (UniProt P48546)
Sequence of GIP receptor (P48546 22-466): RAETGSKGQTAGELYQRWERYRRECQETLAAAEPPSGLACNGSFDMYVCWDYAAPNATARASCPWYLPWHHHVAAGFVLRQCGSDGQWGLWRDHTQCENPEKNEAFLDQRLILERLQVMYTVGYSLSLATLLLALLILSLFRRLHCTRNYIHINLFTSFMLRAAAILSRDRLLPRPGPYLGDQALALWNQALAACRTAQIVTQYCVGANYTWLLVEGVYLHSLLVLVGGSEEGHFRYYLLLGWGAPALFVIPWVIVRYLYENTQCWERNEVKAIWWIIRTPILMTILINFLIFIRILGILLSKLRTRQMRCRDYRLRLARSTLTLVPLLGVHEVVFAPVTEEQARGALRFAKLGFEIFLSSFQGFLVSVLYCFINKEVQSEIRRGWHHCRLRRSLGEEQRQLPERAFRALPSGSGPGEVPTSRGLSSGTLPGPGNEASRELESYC

Sequence of glucagon receptor (P47871 26-477 limits assumed): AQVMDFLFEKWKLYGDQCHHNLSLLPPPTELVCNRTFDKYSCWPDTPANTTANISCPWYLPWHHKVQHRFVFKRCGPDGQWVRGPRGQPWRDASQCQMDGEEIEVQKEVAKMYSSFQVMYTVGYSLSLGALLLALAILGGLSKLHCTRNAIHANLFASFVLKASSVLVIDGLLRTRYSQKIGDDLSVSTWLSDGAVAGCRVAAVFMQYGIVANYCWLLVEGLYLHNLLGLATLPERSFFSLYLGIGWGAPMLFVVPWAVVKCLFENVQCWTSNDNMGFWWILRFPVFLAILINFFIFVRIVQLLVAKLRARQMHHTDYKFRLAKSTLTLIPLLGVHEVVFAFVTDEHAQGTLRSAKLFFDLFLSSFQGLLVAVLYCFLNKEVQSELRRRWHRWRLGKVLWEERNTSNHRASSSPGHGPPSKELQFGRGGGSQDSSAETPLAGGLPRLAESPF
Sequence of GLP-1 receptor (P43220 24-463 limits assumed): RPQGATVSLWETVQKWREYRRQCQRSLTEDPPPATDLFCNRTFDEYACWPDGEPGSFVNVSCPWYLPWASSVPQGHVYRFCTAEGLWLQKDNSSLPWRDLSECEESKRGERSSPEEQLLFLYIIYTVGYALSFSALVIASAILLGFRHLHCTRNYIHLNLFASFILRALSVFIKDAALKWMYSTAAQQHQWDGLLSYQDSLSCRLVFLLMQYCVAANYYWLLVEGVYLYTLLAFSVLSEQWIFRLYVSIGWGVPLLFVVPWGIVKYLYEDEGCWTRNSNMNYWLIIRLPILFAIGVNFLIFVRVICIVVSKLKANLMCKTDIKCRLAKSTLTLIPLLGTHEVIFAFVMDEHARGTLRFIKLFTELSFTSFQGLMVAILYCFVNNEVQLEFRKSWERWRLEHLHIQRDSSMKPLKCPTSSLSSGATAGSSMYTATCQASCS

| Substance | % activity at the glucagon receptor (glucagon receptor) | EC50 (GLP-1 receptor) | EC50 (GIP receptor) | EC50 (glucagon receptor) |
| --- | --- | --- | --- | --- |
| Liraglutide (peptide) | 0.04% |  |  |  |
| mt-103 (peptide) |  | 26.9 nM | 0.242 nM | > 4000 nM |
